Here are results for 14 molecules from PMC5610937 (Journal of molecular biology, 2017).

Substitutions are numbered along the chain they refer to.

Sequences and labels used below:
B1: chimeric rabbit/human anti-human ROR1 Fab ERR1-306 (Fab, V domains shown)
VH: QEQLKESGGGLVQPGGSLKLSCKASGFDLSNYGVSWVRQAPGKGLEWIGYIDPTFDYTYYASWVNGRFSISRENTQNTVSLQINSLTPADTATYFCARWVYGVDDYGDGNWLDLWGQGTLVTISS
VL: QFVLTQSPSVSAALGASAKLTCTLSSAHKTYTIDWYQQQQGEAPRYLMELKSDGSYTKGTGVPDRFSGSSSGADRYLIIPSVQADDEADYYCGTDYSGGYVFGGGTQLTVT
B2: chimeric rabbit/human anti-human ROR1 Fab ERR1-TOP43 (Fab, V domains shown)
VH: QSLEESGGRLVTPGTPLTLTCTVSGFSLSSYWMSWVRQAPGKGLEWIGAIYGSGNTYYASWAKGRFTISKTSTTVDLKITSPTTEDTATYFCARDVHSTATDLWGPGTLVTISS
VL: SYELTQLPSVSVSLGQTARITCGGNNIGSKAVNWYQQKPGLAPGLLIYNDDERPSGVPDRFSGSNSGDTATLTISGAQAGDEADYYCQLWDSSAGAYVFGGGTQLTVT
B3: chimeric rabbit/human anti-human ROR1 Fab ERR1-316 (Fab, V domains shown)
VH: QEQLEESGGRLVTPGTPLTLTCTASGFFLSSYYVSWVRQAPGKGLEWIGAIGTGGSAYYASWAKSRSTITRNTNLSTVTLKMTSLTAADTATYFCARDHPNYGMDLWGPGTLVTVSS
VL: B2 VL with N26S, N49D, A94T, V98A
B4: chimeric rabbit/human anti-human ROR1 Fab ERR1-TOP15 (Fab, V domains shown)
VH: QEQLVESGGRLVTPGGSLTLTCAASGFSPSSYWMSWVRQAPGKGLEWIGAIYVDSGSAYYASWAKSRFTISKTSSTTVDLKMTSLTTEDTAIYFCARDGWGSDVWGPGTLVTISS
VL: B2 VL with N26S, N33H, N49D
B5: chimeric rabbit/human anti-human ROR1 Fab ERR1-TOP54 (Fab, V domains shown)
VH: QSLEESGGRLVTPGTPLTLTCTASGFSLSDYYMSWVRQAPGEGLEWIGTIYGGSGNTWYATWAKGRFTISKTSTTVDLKITSPTTEDTATYFCARDFGLSTGGLWGPGTLVTISS
VL: B2 VL with N26S, N49D, G95R, Y97F
B6: chimeric rabbit/human anti-human ROR1 Fab ERR1-301 (Fab, V domains shown)
VH: QEQLEESGGGLVTPGGSLTLTCTASGFTISTYHMSWVRQAPGKGLEWIGSIYAGSGSTYYASWVNGRFTISSNTTQNTVSLQMNSLTVADTATYFCARDHPSYGMDLWGPGTLVTVSS
VL: B2 VL with N26S, N49D, G63A, G80E, G95V
B7: chimeric rabbit/human anti-human ROR1 Fab ERR1-403 (Fab, V domains shown)
VH: QEQLKESGRGLVQPGGSLKLSCKASGFDFSGWYMTWVRQAPGKGLEWIGTIGTTKGRTYYASWVNGRFTISSNAQNTVDLQMNSLTAADRATYFCVRGSDYFDLWGPGTLVTISS
VL: B2 VL with N26S, N49D, D59A
B8: chimeric rabbit/human anti-human ROR1 Fab XBR1-402 (Fab, V domains shown)
VH: QEQQKESGGGLFKPTDTLTLTCTASGFDISSYYMSWVRQAPGNGLEWIGAIGISGNAYYASWAKSRSTITRNTNLNTVTLKMTSLTAADTATYFCARDHPTYGMDLWGPGTLVTVSS
VL: SYELTQLPSVSVSLGQTARITCEGNNIGSKAVHWYQQKPGLAPGLLIYDDDERPSGVPDRFSGSNSGDTATLTISGAQAGDEADYYCQVWDSSAYVFGGGTQLTVT
B9: chimeric rabbit/human anti-human ROR1 Fab ERR1-TOP4 (Fab, V domains shown)
VH: QSVEESGGRLVTPGTPLTLTCTASGIDLSRYAVNWVRQAPGKGLEWIGVISGSGTTYYASWAKGRFTISKTSTTVDLKITSPTTEDTATYFCARGWATDGIFDYDDTFNLWGPGTLVTVSS
VL: B8 VL with E23G, N25D, N26S, G28E, I47V, D49N, V89L, S92G
B10: chimeric rabbit/human anti-human ROR1 Fab ERR1-TOP22 (Fab, V domains shown)
VH: QSLEESGGRLVTPGTPLTLTCTVSGFSLSSYYMSWVRQAPGKGLEWIGTISSSGSTYYASWVKGRFTISKTSTTVDLKMTSLTTEDTATYFCARDLDYDMDLWGPGTLVTVSS
VL: B8 VL with E23G, N26S, D49N, V89L, S92N, S93N, Y95A
B11: chimeric rabbit/human anti-human ROR1 Fab ERR1-409 (Fab, V domains shown)
VH: QEQLVESGGRLVTPGGSLTLTCTASGFSLSSYYMGWVRQAPGKGLEWIGTIYGGSGSTWYASWVKGRFTISKTSTAVDLKITSLTTEDTATYFCARSYPGWTTEPYFDIWGPGTLVTVSS
VL: QFVLTQPQSVSGSLGQTVSISCNRDSGNIEDYYVHWYQQHPGKAPTTVIYNDDQRPSGVPDRFSGSIDSTSNSASLTITGLLAEDEADYYCLSSDSSAYVFGGGTQLTVT
B12: chimeric rabbit/human anti-human ROR2 Fab XBR2-433 (Fab, V domains shown)
VH: QSVKESEGGLFKPTDTLTLTCTVSGFSLSTYGVSWVRQAPGNGLEWIGAIGSSGSANYASWAKDRSTITRNTNLNTVTLKMTSLTAADTATYFCARDGYYSSGWGPYFNIWGPGTLVTISS
VL: SFVLTQPASVQVNLGQTVSLTCTADTLSRSYASWYQQKPGQAPVLLIYRDTSRPSGVPDRFSGSSSGNTATLTISGAQAGDEADYYCATSGGSGSNPQYVFGGGTQLTVT
B13: chimeric rabbit/human anti-human ROR2 Fab XBR2-TOP72 (Fab, V domains shown)
VH: QEQLEESGGRLVTPGTPLTLTCTVSGIDLSSNAMSWVRQAPGKGLEYVGFINGGGGVHYASWARGRFTISKTSTTVDLKITSPTTEDTATYFCARAGTTYYTSFNLWGPGTLVTISS
VL: QFVLTQSPSASAALGSSAKLTCTLSSAHKTYTIAWYQQQQGEAPRLLMMLRTDGSYTKGTGVPDRFSGSSSGADRYLIISSVQADDAAGYYCGADYSGGYVFGGGTQLTVT
B14: chimeric rabbit/human anti-human ROR2 Fab ERR2-302 (Fab, V domains shown)
VH: QKQLVESGGGLVKPGGSLTLTCTVSGFSLSSYAIGWVRQAPGNGLEWIGIINSYGSTYYASWAKSRSTITRNTNLNTVTLKMTSLTAADTATYFCARSPYGYVSAWGYHRLDLWGQGTLVTISS
VL: B8 VL with E23G, N25A, N26S, A31V, D84E, V89L, S92G, A94D, Y95V

The first experiment has as its target T1, Fc-hROR2 protein (Homo sapiens (Human)., UniProt Q01974). Kind of experiment: ELISA.
As for B1, the binding result was “no binding (tested: 100 ng Fab in 50 μL)”.
For the molecule B2, the binding result is on record as “no binding (tested: 100 ng Fab in 50 μL)”.
Same read-out and setting: for B3 the value was “no binding (tested: 100 ng Fab in 50 μL)”; for B4, “no binding (tested: 100 ng Fab in 50 μL)”; for B5, “no binding (tested: 100 ng Fab in 50 μL)”.
Still for that read-out and setting: as for B6, the entry is “no binding (tested: 100 ng Fab in 50 μL)”.
Still for that read-out and setting: for B7 the value was “no binding (tested: 100 ng Fab in 50 μL)”; for B8, “no binding (tested: 100 ng Fab in 50 μL)”; for B9, “no binding (tested: 100 ng Fab in 50 μL)”.
On to B10, for which the binding result was “no binding (tested: 100 ng Fab in 50 μL)”.
On the same count and under the same terms, as for B11, the entry is “no binding (tested: 100 ng Fab in 50 μL)”.

The target in another experiment is human ROR2 ectopically and stably expressed on mouse pre-B cell line 63-12 (Homo sapiens (Human)., UniProt Q01974). The experiment can be described thus: flow cytometry on cells.
With B1, the binding result is “no binding (tested: 10 μg/mL)”.
Same read-out and setting: for B2 the value was “no binding (tested: 10 μg/mL)”; for B3, “no binding (tested: 10 μg/mL)”; for B4, “no binding (tested: 10 μg/mL)”.
B5: the binding result is given as “no binding (tested: 10 μg/mL)”.
Still for that read-out and setting: as for B6, the entry is “no binding (tested: 10 μg/mL)”; as for B7, “no binding (tested: 10 μg/mL)”; as for B8, “no binding (tested: 10 μg/mL)”.
For B9, the binding result was “no binding (tested: 10 μg/mL)”.
B10: the binding result was “no binding (tested: 10 μg/mL)”.
In the case of B11, the binding result is given as “no binding (tested: 10 μg/mL)”.

For a further experiment, the target named is human Fc fusion protein of the extracellular domain of mouse ROR1 (Mus musculus (Mouse)., UniProt Q9Z139). Kind of experiment: ELISA. A general note: In an ELISA, binding on a coated surface is turned into a signal by an enzyme label.
human Fc fusion protein of the extracellular domain of mouse ROR1, sequence (Q9Z139 30-406): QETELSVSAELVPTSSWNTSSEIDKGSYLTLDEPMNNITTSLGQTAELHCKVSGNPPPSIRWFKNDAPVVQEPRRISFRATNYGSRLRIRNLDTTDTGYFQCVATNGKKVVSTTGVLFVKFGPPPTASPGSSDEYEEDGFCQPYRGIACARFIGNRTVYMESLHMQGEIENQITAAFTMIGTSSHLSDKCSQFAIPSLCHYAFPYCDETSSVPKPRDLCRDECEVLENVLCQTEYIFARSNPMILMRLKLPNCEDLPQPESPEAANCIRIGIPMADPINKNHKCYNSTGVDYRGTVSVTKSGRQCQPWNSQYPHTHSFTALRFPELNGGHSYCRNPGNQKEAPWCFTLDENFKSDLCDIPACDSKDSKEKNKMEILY
On to B1, for which the binding result is “binds”.
On the same count and under the same terms, for B2 the value was “no binding (tested: 100 ng Fab in 50 μL)”; for B3, “no binding (tested: 100 ng Fab in 50 μL)”.
As for B4, the binding result is “no binding (tested: 100 ng Fab in 50 μL)”.
The same measure, in the same setting: as for B5, the entry is “no binding (tested: 100 ng Fab in 50 μL)”; as for B6, “no binding (tested: 100 ng Fab in 50 μL)”.
With B7, the binding result is listed as “no binding (tested: 100 ng Fab in 50 μL)”.
Still for that read-out and setting: for B8 the value was “no binding (tested: 100 ng Fab in 50 μL)”; for B9, “no binding (tested: 100 ng Fab in 50 μL)”.
Turning to B10, the binding result was “binds”.
For B11, the binding result is “no binding (tested: 100 ng Fab in 50 μL)”.

The target in the next experiment is T1, Fc-hROR2 protein. Kind of experiment: SPR.
For B12, the Kd (commonly the concentration at which binding is half-saturated) was 2.28 µM.
On the same count and under the same terms, as for B13, the figure is 4.15 µM; as for B14, 0.0525 µM.

Another experiment deals with mouse ROR2 extracellular domains displayed on HEK293F cells (Mus musculus (Mouse)., UniProt Q9Z138). Kind of experiment: flow cytometry on cells. Background: In flow cytometry, cells or beads pass a laser one at a time.
mouse ROR2 extracellular domains displayed on HEK293F cells, sequence (Q9Z138 34-403): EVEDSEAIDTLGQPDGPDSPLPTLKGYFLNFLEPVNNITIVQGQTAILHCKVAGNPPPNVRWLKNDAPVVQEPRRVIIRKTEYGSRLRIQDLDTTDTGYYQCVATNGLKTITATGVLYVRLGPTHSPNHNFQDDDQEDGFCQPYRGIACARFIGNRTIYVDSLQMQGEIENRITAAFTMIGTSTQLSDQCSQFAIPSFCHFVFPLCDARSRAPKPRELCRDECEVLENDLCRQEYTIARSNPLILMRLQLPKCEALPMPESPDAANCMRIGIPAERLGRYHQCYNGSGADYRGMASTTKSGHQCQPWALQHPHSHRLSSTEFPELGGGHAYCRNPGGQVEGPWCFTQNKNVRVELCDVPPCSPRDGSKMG
For B12, the binding result is listed as “binds”.
Same read-out and setting: as for B13, the entry is “binds”.
The same measure, in the same setting: as for B14, the entry is “binds”.

Another experiment has as its target human ROR1 ectopically and stably expressed on mouse pre-B cell line 63-12 (Homo sapiens (Human)., UniProt Q01973). The experiment can be described thus: flow cytometry on cells.
On to B12, for which the binding result is “no binding”.
Same read-out and setting: for B13 the value was “no binding”; for B14, “no binding”.
